From patent US20100015664A1

Columns and labels:
[1] = target: T1, Nma-Gly-Pro-Ala-Gly-Phe-Ala-Gly-Pro-Lys-(DNP)r-NH2 (not fully specified)
T1 chain: GPAGFAGPK

[2] = target: T2, Fluorescence-labeled synthetic peptide GPAG FAG (not fully specified)
T2 chain: GPAGFAG

[3] = target: T3, Nma-Gly-Pro-Gln-Gly-Phe-Gln-Gly-Pro-Lys-(DNP)r-NH2 (not fully specified)
T3 chain: GPQGFQGPK

[4] = target: T4, Fluorescence-labeled synthetic peptide G FAGP (not fully specified)
T4 chain: GFAGP

[5] = target: T5, Fluorescence-labeled synthetic peptide of Pro-Gln-Gly-Ile-Ala-Gly-Gln (not fully specified)
T5 chain: PQGIAGQ

[6] = target: T6, Fluorescence-labeled synthetic peptide AG FAGP (not fully specified)
T6 chain: AGFAGP

[7] = target: T7, Fluorescence-labeled synthetic peptide GPAG FA (not fully specified)
T7 chain: GPAGFA

[8] = target: T8, Nma-Thr-Gln-Ser-Leu-Val-Thr-Pro-Lys-(DNP)r-NH2 (not fully specified)
T8 chain: TQSLVTPK

[9] = target: T9, Fluorescence-labeled synthetic peptide GPAG F (not fully specified)
T9 chain: GPAGF

[10] = target: T10, Fluorescence-labeled synthetic peptide PAG FAGP (not fully specified)
T10 chain: PAGFAGP

B1: Protease of the present invention, purified from the culture of Aureobacterium sp. MIM-CG-9535-I (FERM P-15326) (protein)
chain: LIVNTVNSIDDKWSDAQASALTYCVSTAFGARHADVVSAMESGAALWEAASSKIDFIYDSSADANCTTRNNAVLFSVEPVQTTQYIARAFFPSTAPRLQNVLIDDSIWTPGSSWTPTNVLGHELGHVLGFRHEHTRPEAGTCFEDDNWRPLTPYDSSSIMHYPQCNGSSADLSMTSVDTDGVVALYGN
Present or Absent of Specific degradation activity [1]: Present
Protease cutting activity (degradation of synthetic substrate) [1]: (◯) Degrades
Present or Absent of Specific degradation activity [2]: Absent
Protease cutting activity (degradation of synthetic substrate) [3]: (◯) Degrades
Present or Absent of Specific degradation activity [4]: Absent
Protease cutting activity (degradation of synthetic substrate) [5]: (X) Does not degrade
Present or Absent of Specific degradation activity [6]: Absent
Present or Absent of Specific degradation activity [7]: Absent
Protease cutting activity (degradation of synthetic substrate) [8]: (◯) Degrades
Present or Absent of Specific degradation activity [9]: Absent
Present or Absent of Specific degradation activity [10]: Present
